Source: paper PMC6612188
Positions count from the first letter of the chain named.

Legend:
[1] = target: T1, VraRM13A (unphosphorylated) M13A (Staphylococcus aureus) (UniProt Q7A2Q1); assay: DNase I footprinting; conditions: 10 mM Tris pH 7.5, 50 mM KCl, 1 mM DTT, 10 mM MgCl2, 50% glycerol, 20 ng/ul herring sperm DNA; 2 ng amplicon; protein 0-50 uM; temperature not stated
T1 sequence: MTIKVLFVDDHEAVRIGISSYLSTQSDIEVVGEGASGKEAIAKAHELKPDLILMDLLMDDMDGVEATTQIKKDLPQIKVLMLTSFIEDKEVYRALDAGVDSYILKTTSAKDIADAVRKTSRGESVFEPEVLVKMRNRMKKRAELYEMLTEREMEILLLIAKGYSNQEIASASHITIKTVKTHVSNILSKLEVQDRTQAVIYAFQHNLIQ

[2] = target: T2, VraR (unphosphorylated) (Staphylococcus aureus) (UniProt Q7A2Q1); assay: DNase I footprinting; conditions: 10 mM Tris pH 7.5, 50 mM KCl, 1 mM DTT, 10 mM MgCl2, 50% glycerol, 20 ng/ul herring sperm DNA; 2 ng amplicon; protein 0-50 uM; temperature not stated
T2 sequence: T1 sequence with A13M

For “TGAAATGACGCATTGATTGTGTTCTTAATTATTATAAAACAGTTCCGAAACCAATATGAATAGGCTCCGGAACTAAATGATGTTCATACTTTAGTCTTAGTATATGTTGAACTATTCTTCTTCAATCTTTGTCGTTAAAATCGGACCAAGCTTCGT (double strand) [PvraSR (-121 to +26)]”, the binding [1] was “binds more weakly” and the binding [2] was “binds”.
